This data set can be described thus: protein stability index of a GFP-peptide fusion (GPS, HEK-293T) (PSI 1-6); higher = more stable. Conditions: c terminus: a fixed tail appended.

± gives the standard deviation.
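Also: 24-mer peptide tiles fused after GFP, lentivirally expressed, FACS-sorted into six equal bins by GFP/DsRed ratio, decoded by Illumina sequencing, PSI is the read-weighted mean bin number.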

As to DVSSTEEFLELSPQKLKEVISLEK [GAN], the protein stability index runs as follows: (treatment: DMSO) 4.88 ± 0.18; (treatment: MLN4924 1 uM, 8 h) 4.87 ± 0.16.

Sequence DYEFRVVAVNNIGRGPPSEPVLTQ [PTPRD] had a protein stability index (treatment: DMSO) of 3.08 ± 0.16 and a protein stability index (treatment: MLN4924 1 uM, 8 h) of 3.04 ± 0.47.

With DYSPYYKTIEELRDKILTATIENN [KRT13], the protein stability index (treatment: DMSO) was found to be 3.17 ± 0.15 and the protein stability index (treatment: MLN4924 1 uM, 8 h) is 3.11 ± 0.16.

Consider DYVDRGYYSVETVTLLVALKVRYR [PPP2CA], for which the protein stability index amounted to 2.74 ± 0.46 (treatment: DMSO) and 2.47 ± 0.6 (treatment: MLN4924 1 uM, 8 h).

For EAAEPPKTPPSSCDSTNAAIAKQA [KMT5A], the protein stability index is 5.42 ± 0.29 (treatment: DMSO) and 5.34 ± 0.13 (treatment: MLN4924 1 uM, 8 h).

As to EAAKQMRSRGKVLKTKDGKLPFCA [CPOX], the protein stability index is 3.89 ± 0.4 (treatment: DMSO) and 3.68 ± 0.23 (treatment: MLN4924 1 uM, 8 h).

As to EALCEEDLLLWIQKHTEVETVDLV [DENND6A], the protein stability index turned out to be 3.37 ± 0.25 (treatment: DMSO) and 3.08 ± 0.27 (treatment: MLN4924 1 uM, 8 h).

Take EASAEGPRAVFVLLEERRPADSAQ [TFE3]: the protein stability index stood at 3.93 ± 0.28 (treatment: DMSO) and 3.95 ± 0.44 (treatment: MLN4924 1 uM, 8 h).

As for EASGYVDRDMFFKICESLNVPVDD [EFHC1], the protein stability index reads like this: (treatment: DMSO) 3.95 ± 0.29; (treatment: MLN4924 1 uM, 8 h) 4.17 ± 0.44.

As for ECMLLVFGIDVKEVDPTGHSFVLV [MAGEA10], the protein stability index came to 2.82 ± 0.44 (treatment: DMSO) and 2.8 ± 0.66 (treatment: MLN4924 1 uM, 8 h).

Turning to ECVVAMHQAQLISKIPHILKEMYD [EIF5], the protein stability index reads like this: (treatment: DMSO) 2.78 ± 0.38; (treatment: MLN4924 1 uM, 8 h) 2.32 ± 0.5.

In the case of EDLTAKRKRMKMDKTCSKTKNKSK [FAM9B], the protein stability index worked out at 4.98 ± 0.43 (treatment: DMSO) and 5.16 ± 0.34 (treatment: MLN4924 1 uM, 8 h).

Take EDSCAELGESKEHMESRMVTETEE [SDE2]: the protein stability index (treatment: DMSO) was 5.7 ± 0.18 and the protein stability index (treatment: MLN4924 1 uM, 8 h) came to 5.63 ± 0.3.

EDSSRDIREALHELLCCTNVSTKE [INTS4] had a protein stability index (treatment: DMSO) of 3.75 ± 0.31 and a protein stability index (treatment: MLN4924 1 uM, 8 h) of 3.98 ± 0.25.

For EDTTEEAQRRRMDEISDHAKVLTL [EIF5], the protein stability index runs as follows: (treatment: DMSO) 5.24 ± 0.11; (treatment: MLN4924 1 uM, 8 h) 5.18 ± 0.2.

As for EEAKGLLDKVKDGGYRPAEDKIFP [ZBED1], the protein stability index by setting is: (treatment: DMSO) 4.84 ± 0.3; (treatment: MLN4924 1 uM, 8 h) 4.78 ± 0.41.

On to EEAVILLEDLERELDEPQHEMVAH [ZSCAN9], for which the protein stability index worked out at 4.14 ± 0.6 (treatment: DMSO) and 4.2 ± 0.34 (treatment: MLN4924 1 uM, 8 h).

Take EEDFDSEQLSVLASCLQELFKAHF [INTS3]: the protein stability index runs as follows: (treatment: DMSO) 2.24 ± 0.078; (treatment: MLN4924 1 uM, 8 h) 2.49 ± 0.29.

On to EELYKEIDGVATTRYSVAGLSPYS [PTPRD], for which the protein stability index amounted to 3.14 ± 0.18 (treatment: DMSO) and 3.36 ± 0.22 (treatment: MLN4924 1 uM, 8 h).

For EEPNGQIQGYRVYYTMDPTQHVNN [PTPRD], the protein stability index came to 3.18 ± 0.19 (treatment: DMSO) and 3.17 ± 0.34 (treatment: MLN4924 1 uM, 8 h).

On to EESILERVQQHIESKLLGSNSSRM [MLH1], for which the protein stability index reads like this: (treatment: DMSO) 3.96 ± 0.15; (treatment: MLN4924 1 uM, 8 h) 3.92 ± 0.11.

On to EGFQRCDVARQLGKNNEFSRLVAG [PSD2], for which the protein stability index stood at 3.22 ± 0.25 (treatment: DMSO) and 3.58 ± 0.23 (treatment: MLN4924 1 uM, 8 h).

Consider EGGEGEKEGEGEVGGEAVEVEEVE [TRIM55], for which the protein stability index is, setting by setting: (treatment: DMSO) 5.66 ± 0.35; (treatment: MLN4924 1 uM, 8 h) 5.41 ± 0.29.

Regarding EGHQEGLVELPASFRELLTFFCTN [SCNN1D], the protein stability index runs as follows: (treatment: DMSO) 2.73 ± 0.36; (treatment: MLN4924 1 uM, 8 h) 2.71 ± 0.34.

For EGLRRRRGREAGPPQPMVPLAVEN [PBXIP1], the protein stability index runs as follows: (treatment: DMSO) 5 ± 0.49; (treatment: MLN4924 1 uM, 8 h) 4.98 ± 0.23.

Sequence EGPDLVPAALGSLTTAQIARSVWR [HES6] had a protein stability index (treatment: DMSO) of 3.33 ± 0.39 and a protein stability index (treatment: MLN4924 1 uM, 8 h) of 3.59 ± 0.34.

In the case of EGQHPAQLRSDVCTPGGTTIYGLH [PYCR3], the protein stability index (treatment: DMSO) stood at 3.8 ± 0.35 and the protein stability index (treatment: MLN4924 1 uM, 8 h) was determined as 3.92 ± 0.39.

In the case of EKKKAHYRQSSFPHCSDLMPSGSE [KCNA4], the protein stability index stood at 4.2 ± 0.2 (treatment: DMSO) and 4.31 ± 0.17 (treatment: MLN4924 1 uM, 8 h).

With EKPYKCPECGEIFAHSSNLLRHQR [ZNF263], the protein stability index is, setting by setting: (treatment: DMSO) 3.07 ± 0.86; (treatment: MLN4924 1 uM, 8 h) 3.76 ± 0.93.

EKRPLFLAPDFDRWLDESDAEMEL [HACD3]: the protein stability index worked out at 4.45 ± 0.11 (treatment: DMSO) and 4.64 ± 0.068 (treatment: MLN4924 1 uM, 8 h).

In the case of ELERKLREVMESAVGNSSGSGQNE [FBXO28], the protein stability index (treatment: DMSO) was 4.11 ± 0.19 and the protein stability index (treatment: MLN4924 1 uM, 8 h) turned out to be 4.24 ± 0.38.

Turning to ELESLSAIEAELEKVAHQLQALRR [CHGA], the protein stability index turned out to be 4.74 ± 0.22 (treatment: DMSO) and 4.97 ± 0.4 (treatment: MLN4924 1 uM, 8 h).

As to ELFHTIDTHNTNNLDTEELCEYFS [NECAB1], the protein stability index by setting is: (treatment: DMSO) 3.41 ± 0.28; (treatment: MLN4924 1 uM, 8 h) 3.47 ± 0.1.

For the sequence ELGVIFYNCSCLVLDLQRIFALYS [PLD5], the protein stability index was 3.24 ± 0.39 (treatment: DMSO) and 3.29 ± 1 (treatment: MLN4924 1 uM, 8 h).

Consider ELKKAAYDIEVNTRRAQADLAYQL [FLOT1], for which the protein stability index stood at 3.2 ± 0.32 (treatment: DMSO) and 3.3 ± 0.32 (treatment: MLN4924 1 uM, 8 h).

Consider ELQRTKQEVLSLRRENSTLDVECH [SASS6], for which the protein stability index amounted to 4.02 ± 0.33 (treatment: DMSO) and 3.93 ± 0.2 (treatment: MLN4924 1 uM, 8 h).

Values taken from the supplement of paper PMC10567573.
